Laboratory results as given in the supplement of paper PMC10567573.

B1: ZNF449 (parent)
chain: YRHQRLHTGERPYECTVCKKRFTR

Variants of: B1
Experiment: protein stability index of a GFP-peptide fusion (GPS, HEK-293T) (PSI 1-6); higher = more stable
Details: c terminus: a fixed tail appended
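Also: lentivirally expressed fusions sorted by FACS into six bins by GFP to DsRed ratio, PSI derived from sequencing read proportions per bin multiplied by bin number.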

Variant | protein stability index
YRHQRLHTGERPYTCTVCKKRFTR | 2.44
YRHQRLHTGERPYWCTVCKKRFTR | 2.59
YRHQRLHTGERPYKCTVCKKRFTR | 2.97
YRHQRLHTGERPYACTVCKKRFTR | 2.5
YRHQRLHTGERPYRCTVCKKRFTR | 2.6
YRHQRLHTGERPYVCTVCKKRFTR | 2.84
YRHQRLHTGERPYLCTVCKKRFTR | 2.38
YRHQRLHTGERPYYCTVCKKRFTR | 2.39
YRHQRLHTGERPYMCTVCKKRFTR | 2.58
YRHQRLHTGERPYQCTVCKKRFTR | 2.54
YRHQRLHTGERPYHCTVCKKRFTR | 2.52
YRHQRLHTGERPYDCTVCKKRFTR | 2.23
YRHQRLHTGERPYNCTVCKKRFTR | 2.7
YRHQRLHTGERPYSCTVCKKRFTR | 2.69
YRHQRLHTGERPYGCTVCKKRFTR | 2.42
YRHQRLHTGERPYPCTVCKKRFTR | 2.93
YRHQRLHTGERPYCCTVCKKRFTR | 2.57
YRHQRLHTGERPYICTVCKKRFTR | 2.77
YRHQRLHTGERPYFCTVCKKRFTR | 2.11
YRHQRLHTEERPYECTVCKKRFTR | 2.31
YRHQRLHTSERPYECTVCKKRFTR | 2.33
YRHQRLHTAERPYECTVCKKRFTR | 2.26
YRHQRLHTMERPYECTVCKKRFTR | 2.25
YRHQRLHTYERPYECTVCKKRFTR | 2.1

Variant | protein stability index
YRHQRLHTQERPYECTVCKKRFTR | 2.1
YRHQRLHTHERPYECTVCKKRFTR | 2.81
YRHQRLHTDERPYECTVCKKRFTR | 2.35
YRHQRLHTVERPYECTVCKKRFTR | 2.07
YRHQRLHTNERPYECTVCKKRFTR | 2.54
YRHQRLHTTERPYECTVCKKRFTR | 2.23
YRHQRLHTPERPYECTVCKKRFTR | 2.04
YRHQRLHTIERPYECTVCKKRFTR | 2.4
YRHQRLHTWERPYECTVCKKRFTR | 1.91
YRHQRLHTRERPYECTVCKKRFTR | 2.45
YRHQRLHTCERPYECTVCKKRFTR | 3.86
YRHQRLHTFERPYECTVCKKRFTR | 2.01
YRHQRLHTLERPYECTVCKKRFTR | 2.21
YRHQRLHTKERPYECTVCKKRFTR | 2.42
YRHQRLHTGERNYECTVCKKRFTR | 2.71
YRHQRLHTGERDYECTVCKKRFTR | 2.83
YRHQRLHTGERGYECTVCKKRFTR | 2.21
YRHQRLHTGERWYECTVCKKRFTR | 2.44
YRHQRLHTGERIYECTVCKKRFTR | 2.1
YRHQRLHTGERAYECTVCKKRFTR | 2.54
YRHQRLHTGERSYECTVCKKRFTR | 2.34
YRHQRLHTGERVYECTVCKKRFTR | 2.87
YRHQRLHTGERQYECTVCKKRFTR | 2.2
YRHQRLHTGERTYECTVCKKRFTR | 2.88

Variant | protein stability index
YRHQRLHTGERMYECTVCKKRFTR | 2.32
YRHQRLHTGERYYECTVCKKRFTR | 2.62
YRHQRLHTGERRYECTVCKKRFTR | 2.98
YRHQRLHTGEREYECTVCKKRFTR | 2.38
YRHQRLHTGERCYECTVCKKRFTR | 2.37
YRHQRLHTGERFYECTVCKKRFTR | 2.19
YRHQRLHTGERKYECTVCKKRFTR | 2.62
YRHQRLHTGERLYECTVCKKRFTR | 2.22
YRHQRLHTGERHYECTVCKKRFTR | 2.26
YRHQRLHTGERPYECCVCKKRFTR | 2.09
YRHQRLHTGERPYECAVCKKRFTR | 2.12
YRHQRIHTGERPYECTVCKKRFTR | 2.37
YRHQRRHTGERPYECTVCKKRFTR | 2.7
YRHQRSHTGERPYECTVCKKRFTR | 2.38
YRHQRYHTGERPYECTVCKKRFTR | 2.74
YRHQRVHTGERPYECTVCKKRFTR | 2.17
YRHQRNHTGERPYECTVCKKRFTR | 2.63
YRHQRWHTGERPYECTVCKKRFTR | 2.38
YRHQRFHTGERPYECTVCKKRFTR | 2.17
YRHQRTHTGERPYECTVCKKRFTR | 2.51
YRHQRKHTGERPYECTVCKKRFTR | 2.34
YRHQRQHTGERPYECTVCKKRFTR | 2.38
YRHQRMHTGERPYECTVCKKRFTR | 2.37
YRHQRGHTGERPYECTVCKKRFTR | 2.61

Variant | protein stability index
YRHQRPHTGERPYECTVCKKRFTR | 2.4
YRHQRHHTGERPYECTVCKKRFTR | 2.73
YRHQRLHGGERPYECTVCKKRFTR | 2.38
YRHQRLHIGERPYECTVCKKRFTR | 2.41
YRHQRLHLGERPYECTVCKKRFTR | 1.97
YRHQRLHYGERPYECTVCKKRFTR | 2.22
YRHQRLHKGERPYECTVCKKRFTR | 2.19
YRHQRLHWGERPYECTVCKKRFTR | 2.39
YRHQRLHAGERPYECTVCKKRFTR | 2.32
YRHQRLHQGERPYECTVCKKRFTR | 2.59
YRHQRLHSGERPYECTVCKKRFTR | 2.71
YRHQRLHMGERPYECTVCKKRFTR | 2.83
YRHQRLHPGERPYECTVCKKRFTR | 2.52
YRHQRLHFGERPYECTVCKKRFTR | 2.31
YRHQRLHVGERPYECTVCKKRFTR | 2.29
YRHQRLHHGERPYECTVCKKRFTR | 2.7
YRHQRLHCGERPYECTVCKKRFTR | 2.4
YRHQRLHEGERPYECTVCKKRFTR | 2.24
YRHQRLHRGERPYECTVCKKRFTR | 2.87
YRHQRLHNGERPYECTVCKKRFTR | 2.56
YRHQRLHDGERPYECTVCKKRFTR | 2.27
YRHQRLHTGERPYEKTVCKKRFTR | 3.42
YRHQRLHTGERPYEETVCKKRFTR | 3.35
YRHQRLHTGERPYESTVCKKRFTR | 3.02

Variant | protein stability index
YRHQRLHTGERPYEPTVCKKRFTR | 3.4
YRHQRLHTGERPYEMTVCKKRFTR | 2.98
YRHQRLHTGERPYETTVCKKRFTR | 2.88
YRHQRLHTGERPYEQTVCKKRFTR | 3.91
YRHQRLHTGERPYEFTVCKKRFTR | 3.02
YRHQRLHTGERPYELTVCKKRFTR | 3.11
YRHQRLHTGERPYEHTVCKKRFTR | 3.33
YRHQRLHTGERPYEITVCKKRFTR | 2.55
YRHQRLHTGERPYERTVCKKRFTR | 3.53
YRHQRLHTGERPYEWTVCKKRFTR | 3.07
YRHQRLHTGERPYEYTVCKKRFTR | 3.07
YRHQRLHTGERPYEDTVCKKRFTR | 3.51
YRHQRLHTGERPYEGTVCKKRFTR | 3.7
YRHQRLHTGERPYEVTVCKKRFTR | 2.85
YRHQRLHTGERPYENTVCKKRFTR | 3.44
YRHQRLHTGERPYEATVCKKRFTR | 3.02
YRHQRLETGERPYECTVCKKRFTR | 2.09
YRHQRLWTGERPYECTVCKKRFTR | 3.01
YRHQRLQTGERPYECTVCKKRFTR | 2.53
YRHQRLRTGERPYECTVCKKRFTR | 2.24
YRHQRLSTGERPYECTVCKKRFTR | 2.05
YRHQRLLTGERPYECTVCKKRFTR | 2.15
YRHQRLNTGERPYECTVCKKRFTR | 2.64
YRHQRLYTGERPYECTVCKKRFTR | 1.61

Variant | protein stability index
YRHQRLKTGERPYECTVCKKRFTR | 2.75
YRHQRLCTGERPYECTVCKKRFTR | 2.65
YRHQRLITGERPYECTVCKKRFTR | 2.16
YRHQRLMTGERPYECTVCKKRFTR | 1.97
YRHQRLVTGERPYECTVCKKRFTR | 2.18
YRHQRLATGERPYECTVCKKRFTR | 2.17
YRHQRLPTGERPYECTVCKKRFTR | 1.84
YRHQRLTTGERPYECTVCKKRFTR | 2.35
YRHQRLFTGERPYECTVCKKRFTR | 1.46
YRHQRLDTGERPYECTVCKKRFTR | 1.92
YRHQRLGTGERPYECTVCKKRFTR | 2.14
YRHQRLHTGECPYECTVCKKRFTR | 3.21
YRHQRLHTGEEPYECTVCKKRFTR | 2.08
YRHQRLHTGEGPYECTVCKKRFTR | 2.71
YRHQRLHTGELPYECTVCKKRFTR | 2.09
YRHQRLHTGEIPYECTVCKKRFTR | 2.22
YRHQRLHTGESPYECTVCKKRFTR | 2.43
YRHQRLHTGEAPYECTVCKKRFTR | 2.26
YRHQRLHTGETPYECTVCKKRFTR | 2.1
YRHQRLHTGEQPYECTVCKKRFTR | 2.48
YRHQRLHTGEHPYECTVCKKRFTR | 2.43
YRHQRLHTGEYPYECTVCKKRFTR | 2.76
YRHQRLHTGEPPYECTVCKKRFTR | 2.33
YRHQRLHTGEFPYECTVCKKRFTR | 2.68

Variant | protein stability index
YRHQRLHTGEWPYECTVCKKRFTR | 2.2
YRHQRLHTGEVPYECTVCKKRFTR | 1.85
YRHQRLHTGEKPYECTVCKKRFTR | 2.59
YRHQRLHTGEMPYECTVCKKRFTR | 1.79
YRHQRLHTGEDPYECTVCKKRFTR | 2.67
YRHQRLHTGENPYECTVCKKRFTR | 2.1
YRHQRLHTGTRPYECTVCKKRFTR | 2.48
YRHQRLHTGARPYECTVCKKRFTR | 2.38
YRHQRLHTGHRPYECTVCKKRFTR | 2.88
YRHQRLHTGVRPYECTVCKKRFTR | 2.4
YRHQRLHTGFRPYECTVCKKRFTR | 2.35
YRHQRLHTGLRPYECTVCKKRFTR | 2.13
YRHQRLHTGPRPYECTVCKKRFTR | 2.58
YRHQRLHTGIRPYECTVCKKRFTR | 2.32
YRHQRLHTGWRPYECTVCKKRFTR | 2.34
YRHQRLHTGSRPYECTVCKKRFTR | 2.62
YRHQRLHTGYRPYECTVCKKRFTR | 3.09
YRHQRLHTGMRPYECTVCKKRFTR | 1.91
YRHQRLHTGRRPYECTVCKKRFTR | 2.81
YRHQRLHTGDRPYECTVCKKRFTR | 2.28
YRHQRLHTGKRPYECTVCKKRFTR | 2.15
YRHQRLHTGGRPYECTVCKKRFTR | 2.24
YRHQRLHTGQRPYECTVCKKRFTR | 2.54
YRHQRLHTGNRPYECTVCKKRFTR | 2.6

Variant | protein stability index
YRHQRLHTGCRPYECTVCKKRFTR | 2.57
YRHQRLHTGERPTECTVCKKRFTR | 2.51
YRHQRLHTGERPHECTVCKKRFTR | 2.69
YRHQRLHTGERPFECTVCKKRFTR | 2.86
YRHQRLHTGERPAECTVCKKRFTR | 2.43
YRHQRLHTGERPSECTVCKKRFTR | 2.08
YRHQRLHTGERPVECTVCKKRFTR | 2.21
YRHQRLHTGERPNECTVCKKRFTR | 2.04
YRHQRLHTGERPCECTVCKKRFTR | 3.74
YRHQRLHTGERPIECTVCKKRFTR | 2.09
YRHQRLHTGERPPECTVCKKRFTR | 2.35
YRHQRLHTGERPRECTVCKKRFTR | 2.32
YRHQRLHTGERPGECTVCKKRFTR | 2.55
YRHQRLHTGERPWECTVCKKRFTR | 2.44
YRHQRLHTGERPKECTVCKKRFTR | 2.25
YRHQRLHTGERPDECTVCKKRFTR | 2.11
YRHQRLHTGERPQECTVCKKRFTR | 2.67
YRHQRLHTGERPEECTVCKKRFTR | 2.63
YRHQRLHTGERPMECTVCKKRFTR | 2.69
YRHQRLHTGERPLECTVCKKRFTR | 2.08
